This note sets out measurements from PMC4854210, “IL-27 Promotes Proliferation of Human Leukemic Cell Lines Through the MAPK/ERK Signaling Pathway and Suppresses Sensitivity to Chemotherapeutic Drugs” (Journal of Interferon & Cytokine Research, 2016).

Assay [1] deals with T1, Recombinant human IL27Rα-Fc chimera (human, UniProt Q6UWB1 33-516).
T1 construct: IL-27 receptor subunit alpha (IL-27Rα, WSX-1, TCCR), human; Captured on the chip by anti-human IgG-Fc antibodies; also called IL-27Rα-Fc fusion protein; IL-27R-Fc fusion protein; source: bought: R & D Systems
T1 sequence (looked up): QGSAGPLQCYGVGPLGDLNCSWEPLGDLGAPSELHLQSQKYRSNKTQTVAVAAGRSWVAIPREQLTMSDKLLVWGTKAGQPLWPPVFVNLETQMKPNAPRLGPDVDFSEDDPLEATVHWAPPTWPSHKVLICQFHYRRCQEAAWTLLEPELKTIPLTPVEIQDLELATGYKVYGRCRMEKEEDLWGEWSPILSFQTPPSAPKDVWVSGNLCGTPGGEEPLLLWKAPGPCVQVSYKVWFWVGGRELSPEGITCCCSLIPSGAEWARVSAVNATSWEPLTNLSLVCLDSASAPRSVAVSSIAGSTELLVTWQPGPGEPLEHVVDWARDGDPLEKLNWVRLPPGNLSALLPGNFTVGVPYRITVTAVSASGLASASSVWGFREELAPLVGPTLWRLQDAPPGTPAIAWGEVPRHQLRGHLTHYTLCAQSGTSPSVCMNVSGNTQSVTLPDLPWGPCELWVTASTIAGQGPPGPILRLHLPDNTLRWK
The assay is described as follows: SPR; IL-27Rα-Fc or gp130-Fc captured on mouse anti-human IgG-Fc antibodies amine-coupled to a CM5 chip; IL-27 injected at increasing concentrations (multicycle), 30 μL/min; BIAcore T100, 25°C, HBS-EP+; double referenced; global fit, 1:1 Langmuir model; KD = kd/ka. Particulars: both partners purified. (In general: In SPR one partner is held on a chip, and binding of the other changes the refractive index at the surface.)

Assay [2] addresses T2, Recombinant human gp130-Fc chimera (human, UniProt P40189-1 23-619).
T2 construct: gp130 (interleukin-6 receptor subunit beta), human; Captured on the chip by anti-human IgG-Fc antibodies; also called gp130-Fc fusion protein; source: bought: R & D Systems
T2 sequence (looked up): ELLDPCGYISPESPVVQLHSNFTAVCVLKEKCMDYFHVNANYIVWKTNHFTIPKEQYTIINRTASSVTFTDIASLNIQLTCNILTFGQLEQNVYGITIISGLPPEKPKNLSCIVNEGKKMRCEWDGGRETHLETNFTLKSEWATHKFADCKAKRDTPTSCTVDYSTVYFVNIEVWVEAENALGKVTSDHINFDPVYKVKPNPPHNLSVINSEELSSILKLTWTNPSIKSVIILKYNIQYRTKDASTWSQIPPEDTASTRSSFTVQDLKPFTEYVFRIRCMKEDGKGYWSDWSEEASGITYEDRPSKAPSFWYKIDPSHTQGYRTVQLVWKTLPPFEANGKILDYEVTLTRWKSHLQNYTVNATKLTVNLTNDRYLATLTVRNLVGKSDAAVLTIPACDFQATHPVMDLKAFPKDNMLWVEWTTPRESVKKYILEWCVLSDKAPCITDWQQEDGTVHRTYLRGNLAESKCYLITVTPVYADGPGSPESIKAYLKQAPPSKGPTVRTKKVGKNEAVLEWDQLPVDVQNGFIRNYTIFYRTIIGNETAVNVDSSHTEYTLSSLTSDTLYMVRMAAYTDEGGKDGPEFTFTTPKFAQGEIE
Described as above. Particulars: both partners purified.

B1: Recombinant human IL-27 (ligand)
chain 1: FPRPPGRPQLSLQELRREFTVSLHLARKLLSEVRGQAHRFAESHLPGVNLYLLPLGEQLPDVSLTFQAWRRLSDPERLCFISTTLQPFHALLGGLGTQGRWTNMERMQLWAMRLDLRDLQRHLRFQVLAAGFNLPEEEEEEEEEEEEERKGLLPGALGSALQGPAQVSWPQLLSTYRLLHSLELVLSRAVRELLLLSKAGHSVWPLGFPTLSPQP
chain 2: RKGPPAALTLPRVQCRASRYPIAVDCSWTLPPAPNSTSPVSFIATYRLGMAARGHSWPCLQQTPTSTSCTITDVQLFSMAPYVLNVTAVHPWGSSSSFVPFITEHIIKPDPPEGVRLSPLAERQLQVQWEPPGSWPFPEIFSLKYWIRYKRQGAARFHRVGPIEATSFILRAVRPRARYYVQVAAQDLTDYGELSDWSLPATATMSLGK
notes: IL-27 subunit p28 (cytokine subunit of the heterodimeric IL-27), human; Epstein-Barr virus-induced gene 3 (EBI3), the soluble cytokine receptor subunit of IL-27, human; also called interleukin-27; source: bought: R & D Systems
Usually Kd stands for the concentration at which binding is half-saturated. Broadly, the koff is the rate constant with which the complex falls apart. As a reminder, the kon is the second-order rate constant of association. As to B1, in assay [1], the Kd was found to be 0.0457 nM, the koff turned out to be 0.00414 s⁻¹ and the kon came to 9.08e+07 M⁻¹ s⁻¹. Besides, in assay [2], the Kd turned out to be 2.74 nM and the koff is 456 s⁻¹.
